From patent US20250074972A1, “ANTIBODIES AND METHODS FOR GENERATING THE SAME” (priority 2021, published 2025)
Entries after “also recorded” stand apart in the source; their conditions may differ.

Assays:
[1] = system: Candida albicans strain SC5314; experiment: Mouse model of disseminated Candidiasis, Study 1; type: in vivo; settings: caspofungin 1 mg/kg at 24 h post-infection; p=0.004
Method: In study 1, the protective effect of mAb 1B11 as a prophylactic agent with single dosing before and after the administration of fungal inoculum was investigated. Female BALB/c mice, 7-9 weeks old were purchased from Envigo Ltd. and randomly assigned to groups of 6 for treatment and control. The Candida albicans inoculum was prepared by growing strain SC5314 in NGY medium for 16 h, shaking at 30° C. Cells were harvested and washed with saline, then counted and resuspended in saline to provide an inoculum of approx. 2×10^4 CFU/g mouse body weight in 100 μl. Mice were infected intravenously.
Actual inoculum level was determined by plating dilutions of the inoculum on Sabouraud dextrose agar and incubating overnight at 30° C. It was determined to be 2.2×10^4 CFU/g mouse body weight.
Animals were allocated into four main groups as explained below. The treatment dose of 1B11 mAb was 15 mg/kg per mouse. All treatments were administered intraperitoneally (IP) in 150 μl saline. […]
Mice were monitored and weighed every day and were culled on day 4 post-infection and the kidneys removed aseptically. […] Burdens were determined by plating out kidney homogenate and counting colonies after 48 h growth at 30° C. […]

C. albicans (SC5314) = experiment: Galleria mellonella infection model, C. albicans; type: in vivo, Candida albicans; settings: for survival of larvae: Galleria mellonella infected with 5×10^5 C. albicans, monitored 60 h, Mantel-Cox p<0.0001
Method: (§1) Galleria mellonella is a reliable infection model to test and compare antibody efficacy by monitoring the survival of the larvae. Ten Galleria mellonella larvae (Livefoods Direct Ltd, Sheffield, UK) with bodyweights of =250-300 mg were used for each test group and standardised inoculum of 5×10^5 C. albicans and 5×10^7 C. auris yeast cells/larvae were injected using Hamilton syringe (Cole-Parmer, UK, washed twice with 100% ethanol and sterile dH2O between every 5 injections) via the last pro-leg. Two control groups, one with no injection and the second with PBS injection were also set up. After injection, larvae were incubated for 48-60 h at 37° C. Survival was monitored first after 24 h and then every 6 h. A Kaplan-Meier plot was generated to assess the survival of larvae infected with C. albicans and C. auris, monitoring the survival rate for 60 h (FIG. 8).
(§2) In addition, the fungal burden of various test groups was calculated by measuring the number of colony forming units (CFU) as an indicator of fungal growth within the larvae and early fungicidal/fungistatic activity of the antibody. […] (FIG. 9A).

[2] = system: Candida albicans strain SC5314; experiment: Mouse model of disseminated Candidiasis, Study 3; type: in vivo; settings: 1 mg/kg at 24 h and 72 h post-infection; day 7
Method: In study 3, the protective effect of mAb 1B11 as a prophylactic agent with single dosing 3 hours before infection followed by two dosing 24 h and 72 h post infection was investigated.
In addition, a treatment only arm with the administration of 1B11 mAb 24 h and 72 h post infection was also included.
Animals were allocated into four main groups as explained below. The treatment dose of 1B11 mAb was 12.5 mg/kg per mouse. All treatments were administered intraperitoneally (IP) in 200 μl saline.
The study plan is shown in FIG. 19 and is as follows: • Group 1—Pre-treatment with 1B11 mAb at 3 h before infection, followed by treatment at 24 h and 72 h post-infection. • Group 2—Injected with saline at 3 h before infection, treatment with 1B11 at 24 h and 72 h post-infection. • Group 3—Saline injections at all three time points • Group 4—caspofungin treatment (1 mg/kg) at 24 h and 72 h post-infection
Mice were monitored and weighed every day and were culled on day 7 post-infection and the kidneys removed aseptically. Kidneys were split […], with one half of each kidney used to determine burdens, one half frozen on OCT and one half fixed in formalin at 4° C. Burdens were determined by plating out kidney homogenate and counting colonies after 48 h growth at 30° C. Statistical comparisons were carried out using IBM SPSS version 24. […]

C. auris (1716) [3] = experiment: Biofilm formation assay (crystal violet), C. auris; type: cell-based, Candida auris
Method: (§3) The ability of 1B11 scAb in preventing the formation of biofilm in C. albicans ([…]) and C. auris (1716) was tested. The growth medium used were RPMI and 20% Foetal Calf Serum (FCS) and the assay was carried out in 96 well microtitre plates. Test antibody 1B11 scAb at a starting concentration of 160 μg/ml was double diluted down the plate and the top row served as positive control with cells only. The final number of cells added to each well was kept constant at 1×10^5/ml and the plate was incubated at 37° C. for 24 h. Following incubation, the biofilm plate was gently washed two times with PBS to remove non-adhering cells and allowed to dry at room temperature overnight. The biofilm was stained with 100 μl 0.05% crystal violet for 20 min followed by washing with Millipore Q water and 200 ul of 100% ethanol. Contents of each well were transferred to a new plate and absorbance was read at 570 nm wavelength.

C. auris (1716) [4] = experiment: Galleria mellonella infection model, C. auris; type: in vivo, Candida auris; settings: for survival of larvae: Galleria mellonella infected with 5×10^7 C. auris, monitored 60 h, versus non-treated, Mantel-Cox p<0.0001
Method: as §1, §2

[5] = system: cell lysates of pga314 mutant strain; experiment: Pga31 scAbs binding ELISA on cell lysates of pga31 mutant strain; set-up: species or system Candida albicans; settings: with or without 0.032 μg/ml caspofungin
Method: (§4) The reaction was stopped using 1 M H2SO4 and the absorbance values measured using a microplate reader at absorbance 450 nm. For total cell lysate ELISA, C. albicans WT and pga31 single mutant strain overnight cultures were inoculated into fresh YPD at OD600 nm of 0.1-0.2, grown for 3-4 h at 30° C. until OD of 0.5-0.6 was reached and then treated with caspofungin (0.032 μg/ml) for 90 min. After 90 min growth cells were harvested, centrifuged for 5 min at 4000 rpm and washed and cell lysate was prepared. This was used to coat ELISA plates at 37° C. for 1 h, plates were washed and blocked with 2% MPBS as before, followed by the two-fold serial dilution of scAb samples.

C. albicans (SC3514) = experiment: Biofilm formation assay (crystal violet), C. albicans; type: cell-based, Candida albicans
Method: as §3

[6] = system: total cell lysates of WT C. albicans (SC5314); experiment: Pga31 scAbs binding ELISA on total cell lysates of WT C. albicans treated with or without caspofungin; set-up: species or system Candida albicans; settings: absorbance 450 nm, cells treated or untreated with 0.032 μg/ml caspofungin
Method: as §4

[7] = at higher concentrations (start 160 μg/ml, double diluted), 24 h incubation

Molecule	kidney organ burdens compared to saline treated mice [1]	survival of larvae (C. albicans (SC5314))	kidney burdens, caspofungin group compared to saline treated group [2]	C. auris growth under biofilm-inducing conditions (C. auris (1716) [3]; 24 h, RPMI or 20% FCS)	biofilm formation (C. auris (1716) [3]; [7])	biofilm biomass (crystal violet) compared to the control (C. auris (1716) [3]; both RPMI and 20% FCS conditions, T-test, p<0.0001, p<0.0004)	fungal burden (colony forming units) in larvae (C. auris (1716) [4]; 4 h and 24 h incubation, versus non-treatment group)	survival of larvae (C. auris (1716) [4])	survival of larvae (C. auris (1716) [4]; listed as anti-Pga31 antibody)	fungal burden (colony forming units) in larvae (C. albicans (SC5314); versus non-treatment group, statistically significant in 24 h group)	scAb binding to mutant strain lysate [5]	C. albicans growth under biofilm-inducing conditions (C. albicans (SC3514); 24 h, especially in 20% foetal calf serum)	biofilm biomass (crystal violet) compared to the control (C. albicans (SC3514); RPMI conditions, T test, p<0.0001)	biofilm formation (C. albicans (SC3514); [7])	scAb binding to lysates of caspofungin treated versus untreated cells [6]
CC[C@H](C)C[C@H](C)CCCCCCCCC(=O)N[C@H]1C[C@@H](O)[C@@H](NCCN)NC(=O)[C@@H]2[C@@H](O)CCN2C(=O)[C@H]([C@H](O)CCN)NC(=O)[C@H]([C@H](O)[C@@H](O)c2ccc(O)cc2)NC(=O)[C@@H]2C[C@@H](O)CN2C(=O)[C@H]([C@@H](C)O)NC1=O [caspofungin, reference compound]	significant decrease	significant survival percentage; also recorded: only had marginal effect	highly significant difference												
1B11 scAb: anti-Pga31 single chain antibody from naive human library; amino acid sequence SEQ ID NO: 2 (protein, 1B11 Amino Acid Sequence) scFv: EVQLLESGGGVVQPGRSLRLSCAASGFTFSSYGMHWVRQAPGKGLEWVAVISYDGSNKYYADSVKGRFTISRDNSKNTLYLQMNSLRAEDTAVYYCARDRSGWGSLDYWGQGTLVTVSSLEGGGGSGGGGSGGGASDIVMTQSPDSLAVSLGERATINCKSSQNVLYSSNNKNYLAWYQQKSGQPPKLLIYWASTRESGVPDRFSGSGSGTDFTLTISSLQAEDVAVYYCQQYYSTPRTFGQGTKVEIK		significant survival percentage		did not significantly inhibit C. auris growth under biofilm-inducing conditions except at the highest concentration tested	able to inhibit biofilm formation	significantly different	inhibited; also recorded: notable inhibition of growth	significant survival percentage	survived significantly more	lower level of growth inhibition	lack of scAb binding	significantly inhibited	significantly different	able to inhibit biofilm formation	increase in scAb binding
